Assay results reported in paper PMC7450096, “Structural mechanism for replication origin binding and remodeling by a metazoan origin recognition complex and its co-loader Cdc6” (Nature Communications, 2020).

Legend:
[1] = molecular target: DmORC Orc1deltaN;DmCdc6deltaN241 (Drosophila melanogaster;Drosophila …, UniProt O16810;Q24168;Q7K2L1;Q9W102;Q24169;Q9Y1B2;Q9VSM9 …, |del1-241); experiment: cryo-EM; ATP, Mg2+; Anisotropy: 1 nM dsDNA, 25 mM HEPES-KOH pH 7.6, 300 mM K-glutamate, 10 mM Mg-acetate, 10% glycerol, 0.1% NP40, 1 mM DTT, 0.1 mg/mL BSA, 0 or 1 mM ATP, 25 C, 40; conditions: protein: recombinant;recombinant; tags: tags cleaved;6xHis-MBP cleaved by TEV; copies: 1;1;1;1;1;1;1; blunt
DmORC Orc1deltaN;DmCdc6deltaN241, sequence (chain, as listed by the source |del1-241 | mutant, chain 4 of 3): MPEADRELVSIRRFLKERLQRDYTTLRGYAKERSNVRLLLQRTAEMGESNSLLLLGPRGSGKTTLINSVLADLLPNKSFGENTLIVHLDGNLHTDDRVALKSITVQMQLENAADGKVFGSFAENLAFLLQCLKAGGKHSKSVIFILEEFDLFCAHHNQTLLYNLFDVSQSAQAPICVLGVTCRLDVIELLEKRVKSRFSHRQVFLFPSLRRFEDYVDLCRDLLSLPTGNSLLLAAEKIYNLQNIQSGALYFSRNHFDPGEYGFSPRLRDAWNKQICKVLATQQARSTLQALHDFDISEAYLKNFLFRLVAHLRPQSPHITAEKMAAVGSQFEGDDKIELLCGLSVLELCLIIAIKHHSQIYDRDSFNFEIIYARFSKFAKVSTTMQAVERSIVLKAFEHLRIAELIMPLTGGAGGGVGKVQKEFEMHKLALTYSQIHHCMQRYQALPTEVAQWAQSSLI
DmORC Orc1deltaN;DmCdc6deltaN241, sequence (Q24169 whole entry, stated change not applied, chain 5 of 3): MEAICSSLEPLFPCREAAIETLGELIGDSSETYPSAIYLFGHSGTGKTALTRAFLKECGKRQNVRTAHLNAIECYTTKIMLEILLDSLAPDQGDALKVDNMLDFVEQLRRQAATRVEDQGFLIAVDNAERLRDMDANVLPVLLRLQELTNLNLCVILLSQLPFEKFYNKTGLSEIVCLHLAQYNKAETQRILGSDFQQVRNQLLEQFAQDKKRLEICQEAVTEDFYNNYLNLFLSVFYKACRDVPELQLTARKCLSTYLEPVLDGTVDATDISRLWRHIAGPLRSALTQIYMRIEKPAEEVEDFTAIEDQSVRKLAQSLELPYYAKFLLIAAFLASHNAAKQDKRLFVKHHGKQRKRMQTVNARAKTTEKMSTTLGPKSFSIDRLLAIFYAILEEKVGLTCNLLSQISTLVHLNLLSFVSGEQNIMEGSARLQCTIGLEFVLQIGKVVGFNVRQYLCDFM
DmORC Orc1deltaN;DmCdc6deltaN241, sequence (Q9Y1B2 whole entry, stated change not applied, chain 6 of 3): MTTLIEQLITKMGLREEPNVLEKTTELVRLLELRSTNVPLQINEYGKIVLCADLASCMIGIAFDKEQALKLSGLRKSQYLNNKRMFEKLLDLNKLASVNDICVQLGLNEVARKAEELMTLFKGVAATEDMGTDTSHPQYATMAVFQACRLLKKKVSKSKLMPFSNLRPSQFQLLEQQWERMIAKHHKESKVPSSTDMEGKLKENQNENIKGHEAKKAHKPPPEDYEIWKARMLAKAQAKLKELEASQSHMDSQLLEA

[2] = molecular target: T1, Drosophila Orc2, subunit of DmORC^Orc1ΔN (Drosophila, UniProt Q24168 1-618); experiment: cryo-EM structure; DmORC^Orc1ΔN (2.5 μM), duplex DNA (3 μM; 60 bp AT-rich, 84 bp AT-rich, 60 bp poly(dA·dT) or 60 bp GC-rich) and DmCdc6ΔN (6.8 μM) assembled at 25 °C in 25 mM HEPES-KOH pH 7.6, 250 mM potassium acetate, 10 mM magnesium acetate, 1 mM DTT, 1 mM ATP; purified by gel filtration; conditions: both partners purified
T1 construct: Orc2, Drosophila; only Orc1 is named as truncated in DmORC^Orc1ΔN; also called DmOrc2; source: Hi5 insect cells, co-expressed with the other ORC subunits, purified as part of DmORC^Orc1ΔN
T1 sequence: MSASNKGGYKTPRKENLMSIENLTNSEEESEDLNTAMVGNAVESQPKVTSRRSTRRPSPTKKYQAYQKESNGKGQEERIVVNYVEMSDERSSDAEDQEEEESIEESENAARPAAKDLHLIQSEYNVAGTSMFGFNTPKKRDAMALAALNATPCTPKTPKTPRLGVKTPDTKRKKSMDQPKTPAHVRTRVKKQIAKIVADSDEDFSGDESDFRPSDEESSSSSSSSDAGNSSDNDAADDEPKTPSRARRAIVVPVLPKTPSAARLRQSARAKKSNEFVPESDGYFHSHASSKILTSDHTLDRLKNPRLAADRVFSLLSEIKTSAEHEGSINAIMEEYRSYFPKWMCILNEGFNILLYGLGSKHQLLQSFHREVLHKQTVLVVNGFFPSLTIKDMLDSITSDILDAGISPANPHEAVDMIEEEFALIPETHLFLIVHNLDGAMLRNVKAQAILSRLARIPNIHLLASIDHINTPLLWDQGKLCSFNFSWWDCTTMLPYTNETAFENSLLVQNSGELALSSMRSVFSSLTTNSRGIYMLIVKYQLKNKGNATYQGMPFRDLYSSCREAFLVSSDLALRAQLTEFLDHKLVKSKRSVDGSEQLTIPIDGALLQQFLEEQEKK

[3] = molecular target: T2, Drosophila origin recognition complex with N-terminally truncated Orc1 (DmORC^Orc1ΔN) (Drosophila, UniProt O16810 440-924; Q24168 1-618; Q7K2L1 1-721; Q9W102 1-459; Q24169 1-460; Q9Y1B2 …); experiment: as above; conditions: both partners purified
T2 construct: Orc1, Drosophila, without the N-terminal 439 amino acid residues (Orc1ΔN); Orc2, Drosophila; only Orc1 is named as truncated in DmORC^Orc1ΔN; Orc3, Drosophila; Orc4, Drosophila; Orc5, Drosophila; Orc6, Drosophila; full-length DmOrc6 was used to reconstitute the binary and ternary complexes; Heterohexamer used for cryo-EM and for the pull-down with Cdc6ΔN; also called truncated DmORC; not shown: …
T2 sequence (chain, as listed by the source mutant, chain 4 of 3): as the sequence (chain, as listed by the source |del1-241 | mutant, chain 4 of 3) above
T2 sequence (Q24169 whole entry, stated change not applied, chain 5 of 3, the tested form may be a part): as the sequence (Q24169 whole entry, stated change not applied, chain 5 of 3) above
T2 sequence (Q9Y1B2 whole entry, stated change not applied, chain 6 of 3, the tested form may be a part): as the sequence (Q9Y1B2 whole entry, stated change not applied, chain 6 of 3) above

[4] = molecular target: T3, Drosophila Orc1 lacking the N-terminal 439 residues (Orc1ΔN), subunit of DmORC^Orc1ΔN (Drosophila, UniProt O16810 440-924); experiment: as above; conditions: both partners purified
T3 construct: Orc1, Drosophila, without the N-terminal 439 amino acid residues; also called DmOrc1; source: Hi5 insect cells, co-expressed with the other ORC subunits, purified as part of DmORC^Orc1ΔN; not shown: 6xHis, N-terminal, cleaved
T3 sequence (looked up): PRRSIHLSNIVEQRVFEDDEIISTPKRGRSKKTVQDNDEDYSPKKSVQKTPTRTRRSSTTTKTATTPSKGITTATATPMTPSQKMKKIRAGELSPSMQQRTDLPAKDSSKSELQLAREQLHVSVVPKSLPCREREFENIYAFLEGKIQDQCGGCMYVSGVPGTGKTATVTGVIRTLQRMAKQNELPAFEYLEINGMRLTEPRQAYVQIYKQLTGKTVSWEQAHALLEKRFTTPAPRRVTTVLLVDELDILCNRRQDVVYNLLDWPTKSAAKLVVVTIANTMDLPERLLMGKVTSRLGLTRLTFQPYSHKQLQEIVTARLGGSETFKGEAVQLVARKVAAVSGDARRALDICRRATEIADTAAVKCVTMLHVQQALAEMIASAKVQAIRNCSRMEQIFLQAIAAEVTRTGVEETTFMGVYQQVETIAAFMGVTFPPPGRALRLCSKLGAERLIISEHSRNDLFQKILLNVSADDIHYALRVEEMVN

[5] = molecular target: T4, Drosophila Orc3, subunit of DmORC^Orc1ΔN (Drosophila, UniProt Q7K2L1 1-721); experiment: as above; conditions: both partners purified
T4 construct: Orc3, Drosophila; only Orc1 is named as truncated in DmORC^Orc1ΔN; also called DmOrc3; source: Hi5 insect cells, co-expressed with the other ORC subunits, purified as part of DmORC^Orc1ΔN
T4 sequence: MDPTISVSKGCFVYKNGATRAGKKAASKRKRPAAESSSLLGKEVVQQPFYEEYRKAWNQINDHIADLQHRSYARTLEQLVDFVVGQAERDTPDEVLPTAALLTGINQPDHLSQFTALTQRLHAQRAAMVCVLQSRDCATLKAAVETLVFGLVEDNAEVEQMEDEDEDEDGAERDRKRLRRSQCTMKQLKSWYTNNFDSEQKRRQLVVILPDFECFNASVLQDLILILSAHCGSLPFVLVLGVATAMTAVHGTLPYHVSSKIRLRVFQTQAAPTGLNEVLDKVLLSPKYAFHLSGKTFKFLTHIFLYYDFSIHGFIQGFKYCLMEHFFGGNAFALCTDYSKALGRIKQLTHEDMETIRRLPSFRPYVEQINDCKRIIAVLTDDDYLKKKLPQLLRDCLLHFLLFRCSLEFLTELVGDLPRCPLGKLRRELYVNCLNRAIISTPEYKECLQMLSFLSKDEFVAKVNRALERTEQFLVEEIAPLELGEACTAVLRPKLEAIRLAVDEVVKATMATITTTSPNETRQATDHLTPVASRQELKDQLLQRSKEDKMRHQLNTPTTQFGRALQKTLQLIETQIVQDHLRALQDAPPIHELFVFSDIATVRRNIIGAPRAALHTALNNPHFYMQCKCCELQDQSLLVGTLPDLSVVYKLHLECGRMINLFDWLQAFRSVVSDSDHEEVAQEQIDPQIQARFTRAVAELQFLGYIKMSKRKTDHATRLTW

[6] = molecular target: T2, Drosophila origin recognition complex …; experiment: pull-down; MBP-DmCdc6 or 6xHis-MBP-DmCdc6ΔN (200 nM) as bait on amylose beads; DmORC (100 nM) with 60 bp AT-rich dsDNA (100 nM); 25 mM HEPES-KOH pH 7.6, 300 mM potassium glutamate, 10 mM magnesium acetate, 10% glycerol, 1 mM DTT, 0 or 1 mM ATP; 25 °C; SDS-PAGE and silver staining; conditions: both partners purified

B1: 60 bp GC-rich (70% GC) (dsDNA)
DNA 1: GGGGCTCGACTCCAAGTGCGGGGCACTCGTCTGTGAGGGGGCTCAGTTCGCACTGCGGGG
DNA 2: CCCCGCAGTGCGAACTGAGCCCCCTCACAGACGAGTGCCCCGCACTTGGAGTCGAGCCCC
binding result [1]: binds

B2: 84 bp AT-rich (dsDNA)
DNA 1: TTTGTGCACTTGCCTGCAGGCCTTTTGAAAAGCAAGCATAAAAGATCTAAACATAAAATCTGTAAAATAACAAGATGTAAAGAT
DNA 2: ATCTTTACATCTTGTTATTTTACAGATTTTATGTTTAGATCTTTTATGCTTGCTTTTCAAAAGGCCTGCAGGCAAGTGCACAAA
binding result [1]: binds

B3: N-terminally truncated Drosophila Cdc6 (DmCdc6ΔN241), tags removed (domain or fragment, UniProt Q9VSM9 242-662, looked up)
chain: NNLPSPSRNKYQNARRVLNSAETQNLPGRESQLQELREFFSNHLESQTSGSLYVSGQPGTGKTACLSLLLRDPDFSKRLQRVYINCTSIASVGAVYKKLCTELQLKVSGRTERDHLEAIQRHLKTAKRMLLLVLDEIDQLCTSRQEVLYTIFEWPALPGSRILLVGIANSLDLTDRALMRLNARCELKPRLMHFPPYSKQQIVEIFKSRLAEAEVLDVFPPVTLQLLAAKVSAISGDVRRALDIGRRVVEIAEQQKRDGEKEFNMKALQLEGKDAVEAKEKQDTLKPVQVTQVAAVLNKVYGASQNLEEDIEASFPLQQKLMLCTLVLMLRNERNKDISMGRLHEVYRRVCAKRNILALDQAEFTGTVDLVETRGILRIMRKKEPRLHKVLLQWDEEEVHAALSDKQLIASILSDTACLSK
notes: Cdc6, Drosophila, ΔN241, amino acids 242-662; not shown: 6xHis, N-terminal, cleaved; MBP, N-terminal, cleaved
binding result [2]: binds | binding result [3]: binds | binding result [4]: binds | binding result [5]: binds

B4: 6xHis-MBP-tagged N-terminally truncated Drosophila Cdc6 (6xHis-MBP-DmCdc6ΔN241) (domain or fragment, UniProt Q9VSM9 242-662, looked up)
chain: NNLPSPSRNKYQNARRVLNSAETQNLPGRESQLQELREFFSNHLESQTSGSLYVSGQPGTGKTACLSLLLRDPDFSKRLQRVYINCTSIASVGAVYKKLCTELQLKVSGRTERDHLEAIQRHLKTAKRMLLLVLDEIDQLCTSRQEVLYTIFEWPALPGSRILLVGIANSLDLTDRALMRLNARCELKPRLMHFPPYSKQQIVEIFKSRLAEAEVLDVFPPVTLQLLAAKVSAISGDVRRALDIGRRVVEIAEQQKRDGEKEFNMKALQLEGKDAVEAKEKQDTLKPVQVTQVAAVLNKVYGASQNLEEDIEASFPLQQKLMLCTLVLMLRNERNKDISMGRLHEVYRRVCAKRNILALDQAEFTGTVDLVETRGILRIMRKKEPRLHKVLLQWDEEEVHAALSDKQLIASILSDTACLSK
notes: Cdc6, Drosophila, ΔN241, amino acids 242-662; also called 6xHis-MBP-tagged DmCdc6ΔN241; source: TEV cleavage omitted; not shown: 6xHis, N-terminal, kept; MBP, N-terminal, kept
binding result [6]: binds
